Source: US20140004107A1 (published 2014)

T1: human ST2 on human primary cells (human, UniProt Q01638 19-556)
T1 sequence: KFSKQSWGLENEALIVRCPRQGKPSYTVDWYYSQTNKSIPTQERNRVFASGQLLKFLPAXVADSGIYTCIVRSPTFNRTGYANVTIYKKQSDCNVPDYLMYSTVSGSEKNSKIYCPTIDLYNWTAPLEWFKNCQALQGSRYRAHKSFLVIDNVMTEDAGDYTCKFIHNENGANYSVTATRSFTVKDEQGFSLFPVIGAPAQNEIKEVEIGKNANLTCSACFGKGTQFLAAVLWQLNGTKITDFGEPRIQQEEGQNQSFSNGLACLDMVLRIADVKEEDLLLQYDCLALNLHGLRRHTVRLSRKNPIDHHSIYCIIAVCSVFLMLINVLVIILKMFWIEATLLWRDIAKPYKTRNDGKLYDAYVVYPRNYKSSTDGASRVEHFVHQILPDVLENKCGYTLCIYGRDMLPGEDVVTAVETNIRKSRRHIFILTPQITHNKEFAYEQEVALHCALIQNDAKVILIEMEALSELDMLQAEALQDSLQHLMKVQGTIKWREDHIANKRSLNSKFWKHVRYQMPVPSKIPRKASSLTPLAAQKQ

T2: soluble human ST2-FLAG His (human, UniProt Q01638 19-322, limits assumed)
T2 construct: also called human ST2-FH; 6xhistidine tagged human ST2; not shown: FLAG and 6x histidine tags
T2 sequence: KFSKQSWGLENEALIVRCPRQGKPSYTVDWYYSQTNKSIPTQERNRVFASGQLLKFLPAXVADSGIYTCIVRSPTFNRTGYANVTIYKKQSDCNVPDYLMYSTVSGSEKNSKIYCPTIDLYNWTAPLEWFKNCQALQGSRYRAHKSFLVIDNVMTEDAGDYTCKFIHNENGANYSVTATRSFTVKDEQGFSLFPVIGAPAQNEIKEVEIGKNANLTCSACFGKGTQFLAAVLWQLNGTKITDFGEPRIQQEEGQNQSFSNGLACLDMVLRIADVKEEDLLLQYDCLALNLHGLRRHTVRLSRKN

T3: biotinylated human ST2-Fc (human, UniProt Q01638 19-331, biotinylated)
T3 construct: also called ST2-Fc fusion protein; not shown: human antibody Fc domain
T3 sequence: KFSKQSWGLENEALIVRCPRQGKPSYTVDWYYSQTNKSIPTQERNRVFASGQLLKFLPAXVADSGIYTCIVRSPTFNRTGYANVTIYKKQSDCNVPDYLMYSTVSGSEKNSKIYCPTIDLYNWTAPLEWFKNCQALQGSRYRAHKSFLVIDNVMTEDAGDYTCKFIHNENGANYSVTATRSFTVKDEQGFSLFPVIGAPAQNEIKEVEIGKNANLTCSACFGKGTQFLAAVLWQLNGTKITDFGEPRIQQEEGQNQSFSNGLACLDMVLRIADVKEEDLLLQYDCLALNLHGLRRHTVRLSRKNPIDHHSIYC

T4: cynomolgus monkey ST2 on cynomolgus CD4+ T cells (cynomolgus monkey, UniProt Q01638 19-556 (human entry))
T4 chain: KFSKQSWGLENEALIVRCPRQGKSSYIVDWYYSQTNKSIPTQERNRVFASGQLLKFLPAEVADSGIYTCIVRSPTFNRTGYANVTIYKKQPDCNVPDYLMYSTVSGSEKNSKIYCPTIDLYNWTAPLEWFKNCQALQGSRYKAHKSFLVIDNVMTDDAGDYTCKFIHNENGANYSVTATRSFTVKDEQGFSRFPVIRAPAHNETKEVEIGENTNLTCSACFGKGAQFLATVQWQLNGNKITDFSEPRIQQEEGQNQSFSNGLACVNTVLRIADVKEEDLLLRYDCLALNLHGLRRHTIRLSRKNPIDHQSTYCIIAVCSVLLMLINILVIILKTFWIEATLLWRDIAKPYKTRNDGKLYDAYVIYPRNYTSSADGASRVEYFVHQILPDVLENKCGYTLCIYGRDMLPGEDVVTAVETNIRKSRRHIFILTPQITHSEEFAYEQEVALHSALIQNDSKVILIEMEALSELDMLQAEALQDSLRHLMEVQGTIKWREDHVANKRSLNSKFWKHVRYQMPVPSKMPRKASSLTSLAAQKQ

T5: human ST2 (SPR analyte) (human, UniProt Q01638 19-322)
T5 construct: The ST2 reagent injected in SPR; leader is 1-18; also called hu ST2
T5 sequence: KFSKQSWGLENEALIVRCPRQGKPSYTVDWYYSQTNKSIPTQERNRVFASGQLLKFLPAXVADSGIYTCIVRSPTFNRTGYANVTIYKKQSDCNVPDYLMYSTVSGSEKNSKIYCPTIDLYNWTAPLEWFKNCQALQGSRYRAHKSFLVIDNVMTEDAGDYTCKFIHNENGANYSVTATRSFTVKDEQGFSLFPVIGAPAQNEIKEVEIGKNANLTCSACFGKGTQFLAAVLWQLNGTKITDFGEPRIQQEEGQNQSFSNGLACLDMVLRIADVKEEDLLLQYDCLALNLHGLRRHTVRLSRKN

T6: cynomolgus monkey ST2 (SPR analyte) (cynomolgus monkey, UniProt Q01638 19-322 (human entry))
T6 construct: The cyno ST2 reagent injected in SPR; leader is 1-18; also called cy ST2
T6 chain: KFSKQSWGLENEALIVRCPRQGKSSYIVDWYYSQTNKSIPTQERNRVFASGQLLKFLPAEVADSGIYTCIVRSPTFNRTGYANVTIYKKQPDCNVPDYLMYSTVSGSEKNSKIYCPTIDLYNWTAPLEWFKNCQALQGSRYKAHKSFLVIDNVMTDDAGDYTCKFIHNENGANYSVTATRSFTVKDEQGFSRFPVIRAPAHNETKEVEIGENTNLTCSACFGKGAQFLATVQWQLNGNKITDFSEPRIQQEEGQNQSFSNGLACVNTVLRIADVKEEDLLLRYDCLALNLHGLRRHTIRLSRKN


How the values were obtained:
[1] = biological target: T1, human ST2 on human primary cells; test: cell-based or functional assay
[2] = biological target: T2, soluble human ST2-FLAG His; test: AlphaScreen, biotinylated human IL-33 with human ST2-FH, antibody at 12.5 ug/ml
[3] = biological target: T3, biotinylated human ST2-Fc; test: AlphaScreen, IL-33 mediated association of biotinylated human ST2-Fc with human AcP-FH, antibody at 12.5 ug/ml
Description: In the second assay, antibodies were evaluated for the ability to inhibit the IL-33 mediated association of ST2 with the co-receptor AcP. […] The ST2/AcP AlphaScreen was conducted in 8 ul reactions in a 384 well optiplate (Perkin Elmer). […] After the addition of all assay components the plates were incubated overnight in the dark at room temperature. The next day the plates were read on a 2103 Envision multilable reader (Perkin Elmer) using the same parameters as above for the first assay.

[4] = biological target: T4, cynomolgus monkey ST2 on cynomolgus …; test: cell-based or functional assay
[5] = biological target: T1, human ST2 on human primary cells; test: cell-based or functional assay; remark: listed apart in the source
human ST2 (SPR analyte) [6] = biological target: T5, human ST2 (SPR analyte); test: SPR Biacore 4000, association at pH 7.4, dissociation at pH 5.5 (estimated kd)
Description: (§1) The association (5 min) rates at pH 7.4 and dissociation (10 min) rates at pH 5.5 and 7.4 were monitored at a flow rate of 30 uL/min. The reference subtracted data was fit to a 1:1 model in Scrubber.

human ST2 (SPR analyte) [7] = biological target: T5, human ST2 (SPR analyte); test: SPR Biacore 3000, captured antibody, ST2 analyte, 25 C
[8] = biological target: T6, cynomolgus monkey ST2 (SPR analyte); test: as above
human ST2 (SPR analyte) [9] = biological target: T5, human ST2 (SPR analyte); test: SPR Biacore 4000, association at pH 7.4, dissociation at pH 7.4 (estimated kd)
Description: as §1

human ST2 (SPR analyte) [10] = biological target: T5, human ST2 (SPR analyte); test: SPR Biacore 4000, kd at pH 5.5 against kd at pH 7.4
Description: as §1

human ST2 (SPR analyte) [11] = biological target: T5, human ST2 (SPR analyte); test: SPR ProteOn XPR-36, captured antibody, ST2 analyte, 25 C
[12] = biological target: T6, cynomolgus monkey ST2 (SPR analyte); test: as above

Binder | IC-50, human eosinophil IL-8 release assay (IL-33 and IL-3 stimulation) [1] [pM] | % inhib ST2-IL33 AS 12.5 ug/ml [2] [%] | % inhib ST2-AcP AS 12.5 ug/ml [3] [%] | IC-50, cynomolgus monkey CD4+ T cell IFNγ release assay (IL-33, IL-2 and IL-12p70 stimulation) [4] [pM] | IC50 of inhibition of human IL-33-induced IL-5 production from human CD4+ T cells [5] [pM] | koff (human ST2 (SPR analyte) [6]) [s⁻¹] | Kd (human ST2 (SPR analyte) [7]) [pM] | koff (human ST2 (SPR analyte) [7]) [s⁻¹] | kon (human ST2 (SPR analyte) [7]) [M⁻¹ s⁻¹] | Kd [8] [pM] | koff [8] [s⁻¹] | kon [8] [M⁻¹ s⁻¹] | koff (human ST2 (SPR analyte) [9]) [s⁻¹] | pH 5.5/pH 7.4 koff fold change (human ST2 (SPR analyte) [10]) [fold] | Kd (human ST2 (SPR analyte) [11]) [pM] | Kd [12] [pM]
Ab6 (antibody, human IgG2, kappa, V domains shown, fully human anti-ST2 antibody) VH: EVQLVESGGGLVQPGGSLRLSCAASGFTFSTYDMHWVRQTTGKGLEWVSAIDLAGDTYYPGSVKGRFTISREDAKNSLYLQMNSLRAGDTAVYYCARGGDGYNYDYYGIDVWGQGTTVTVSS VL: DIVMTQSPLSLPVTPGEPASISCRSSQSLLHSDGYHYLDWYLQKPGQSPQLLIYLGSNRASGVPDRFSGSGSGTDFTLNISRVEAEDVGVYYCMQALQTLTFGGGTKVEIKR | 63 | 98.5 | 71.2 | 47.1 |  |  |  |  |  |  |  |  |  |  |  | 
Ab5 (antibody, human IgG2, kappa, V domains shown) VH: EVQLVESGGGWVQPGGSLRLSCAASGFTFSSYDMYWVRQATGKGLEWVSGIDTVGDTYYPDSVKGRFTISRENAKNSVYLQMNTLRAGDTAVYYCVRGIYGDFYYYGLDVWGHGTTVTVSS VL: DIVMTQSPLSLPVTPGEPASISCRSSQSLLYSDGNNYLDWYLQKPGQSPHLLIYLGSNRASGVPDRFSGSGSGTDFTLKISRVEADDVGVYYCMQALQTLTFGGGTKVEIKR | 73.3 |  |  | 12.9 | 64500 |  |  |  |  |  |  |  |  |  |  | 
Ab7 (antibody, human IgG2, kappa, V domains shown, fully human anti-ST2 antibody) VH: EVQLVESGGGLVQPGGSLRLSCAASGFTFSTYDMHWVRQTTGKGLEWVSAIDLAGDTYYPGSVKGRFTISREDAKNSLYLQMNSLRAGDTAVYYCARGGDGYNYDYYGIDVWGQGTTVTVSS VL: DIVMTQSPLSLPVTPGEPASISCRSSQSLLHSDGYHYLDWYLQKPGQSPQLLIYLGSNRASGVPDRFSGSGSGTDFTLNISRVEAEDVGVYYCMQALQTLTFGGGTKVEIKR | 40.7 | 98.9 | 75.7 | 40 |  |  |  |  |  |  |  |  |  |  |  | 
Ab3 (antibody, human IgG2, kappa, V domains shown, fully human anti-ST2 antibody) VH: EVQLVESGGGLVQPGGSLRLSCAASGFTFSTYDMHWIRQAPGKNLEWVSAIDLAGDTYYPGSVKGRFTISREDAKNSLYLQMNSLRAGDTAVYYCARGGDGYNYDYYGIDVWGQGTTVTVSS VL: DIVMTQSPLSLPVTPGEPASISCRSSQSLLHSDGYHYLDWYLQKPGQSPQLLIYLGSNRASGVPDRFTGSGSGTDFTLKISRVEAEDVGVYYCMQALQILTFGGGTKVEIKR | 50.4 | 98.8 | 68.7 | 15.2 |  | 7.91e-05 | 238 | 9.5e-05 | 400000 | 127 | 8.55e-05 | 674000 | 2.73e-05 | 2.9 |  | 
Ab4 (antibody, human IgG2, kappa, V domains shown, fully human anti-ST2 antibody) VH: QVQLVQSGAEVKKPGASVKVSCEVSGFILTELSVNWVRQAPGKGLEWMGGFDPEDGKTIYAQKFQGRVTLTEDTSTDTAYMELSSLRSEDTAVYYCATWWDFHFDFWGQGTLVTVSS VL: DFVMTQTPLSLSVTPGQPASISCKSSQSLLHSNGKTYLYWFLQKPGQPPQLLIYEVSNRFSGVPDRFSGSGSGTDFTLKISRVEAEDVGVYYCMQSIQLPLTFGGGTKVEIKR | 14.1 | 98.4 | 77.8 | 4.03 |  | 0.0107 | 301 | 0.000706 | 2.35e+06 | 516 | 0.00129 | 2.5e+06 | 0.000632 | 16.9 |  | 
Ab1 (antibody, human IgG2, kappa, V domains shown, fully human anti-ST2 antibody) VH: QVQLVQSGAEVKKPGASVKVSCKVSGYTLTELSIHWVRQAPGKGLEWMGGFGPEDGETIYAQKFQGRVTMTEDTSTDTAYMELSSLRSEDTAVYYCTTEDSSGLFDYWGQGTLVTVSS VL: not shown | 51.5 | 98.1 | 86.9 | 15.8 | 10700 | 0.0118 | 77.7 | 0.000111 | 1.43e+06 | 117 | 0.000197 | 1.69e+06 | 0.000134 | 88.1 |  | 
Ab30 (antibody, human IgG2, kappa, V domains shown, fully human anti-ST2 antibody) VH: QVQLVESGGGVVQPGRSLRLSCTASGFTFSSHGMHWVRQAPGKGLEWVTIIWFDGNNKYYADSVEGRFTISRDNSKNTLFLQMNSLRAEDTAVYYCAREGAEQGFIDLWGRGTLVTVSS VL: DIQMTQSPSSLSASVGDRVTITCQASQDISNYLNWYHQKPGKAPKLLIYDASNLETGVPSRFSGSGSGTDFTFTISGLQPEDIATYYCQQHDNLPLTFGGGTKVEIKR |  |  |  |  |  |  |  |  |  |  |  |  |  |  | 9.7 | 10.2
